From a protein production outcome set (Wang et al. 2014)

experiment: label from the status in PepcDB records

| Sequence | protein production |
| --- | --- |
| MDEGMQIVGAVSGLSTPFNQNVSLECYNGILSMLLNGAPLADILHALVLKIEDQRLGTHASVLLLSEDGKRVLTGAAPHLPDSYNQVIHGVEIGPEVGSCGTAAYTGQRVIVEDIEHHPYWALYKSFALVHGLRACWSEPIKDTQGKVLGTFAMYYKEIKSPTVADLTLIAEAARLASLAIERSRSLEFQRLAVKIFDRLPLALVITNASHSVLYANDAFKLMVCLQPDDILAFNPEQFFSPSEPHEIASLFNHLSEGKMWQGELVGLRNNGETFYLDLTVTVFRESHSADLGFAWLFSDVSERKKAAQLIKYQANNDSLTGLANRNALFRQIQELINADSLTPGFSFMLMDLDNFKQVNDTYGHDKGDVLLVQMVEQVKICLDPQAVFARLGGDEFAILLPGVVTQRELSQLADKINKQVYRRYELSHDKGVYSSVSIGIARFPEDALDLEQLLNCADQAMYISKANGRNRYHFFTEQMQQNAERIANLHTLLKQALEQNAFELYFQPIVDATTGLIVRAEVLLRWQHEGQFISPDEFIPIAENSGLIVSIGRCVRQAVMQTIVEMQALGWPMSLAINVSTFEFWSHELQDEFCDSFTDIIEGLGVEDFPYELITLEITESLLMKKHAHLIQVLNELRARGIKISLDDFGTGYSSLSYLANFPIDQIKIDKSFIDRLAEGERHLALIEAIVRLSHALNLRVTAEGVETQEQLQVMMDNHIQEIQGYLFYKPIPKAVFFELLAKQAVISPHSLEHHHHHH | failed |
| MDELHPGYLVGLLVLLVACSAFFSCVETALLNLDRYRLRLQAKQGLRGARRSSWLLLHDDRLRGTLLFGRTLVNVSAAALASWAALRHWGVIGLAVAIPGMTLLLLLFGALLPRRYGALRSERVALPLSLPLLILQRLCWPLLWLLTLLSNALLRLLGVAAAEQDDSGRSRDEEALHPADNPQASEVNRHDMLLGLLDLEKVTVNDLMIPRNEIEGIDLDDELEVIVEQLRTTSHTRLPVYRDDVNQIEGVVHMRQIARLLTQGRLTKENLRQACMEPYFVPESTPLSTQLVNFQKEKRRIGVVVDEYGEVIGIVTLEDILEEIVGDFNDLDSLDNPDIQAQEDGSFVIDGSANLRELNKSLGWQLPCDGPKTLNGLVTEALEQIPDCAVCLRIGPYCLEIQQSAENRVKSVRAWHPRALTPLVESDASV | failed |
| MDELRFAAVGLNHNHIYGQVNCLLRAGARLAGFHEKDDALAAEFSAVYADARRIATAEEILEDENIGLIVSAAVSSERAELAIRAMQHGKDVLVDKPGMTSFDQLAKLRRVQAETGRIFSILYSEHFESPATVKAGELVAAGAIGEVVHIVGLGPHRLRRETRPDWFFRRADYGGILTDIASHQCEQFLFFTGVNDATVLSASVGNQSVPDAPELQDTGSIHLSTGRTTGMIHVNWLTPEGMPTWGDGRLFIVGTSGTIEVRKTVDLAGREGGNHLFLADRNGVEHIDCSRVDLPFGRQFLADIRDRTETAMPQERCFKAMELALQAQAIAEQNGDRN | not failed |
| MDEPVRTFPITWLADYVMEDEGFSSREDINDLLMKEGFPLEPDLFMLTEIARKGIIEVTSSRDYSPEYALFLNLTFRDGSALNSRKVKVAWSEVCSPKQEGGLGLRSIAEANKVCVLKLIWRILSARRSLWVELVKKYLIRRGSFWLVKENTTCGSWIWKKILKYRDTAKSFYRVEVRNGEASSFGFDRWSEMGCLYDRLGARGCIDLGSPMTATVGEVMAGARRRKYRVAILNQVENEIVKQKLIRSNETDVALWNGKHDHYRKEFHTKETWLQIRTAKLLMENYNGIWFKHSTPKYSLITWLVQKNRVATGDKLIKWNPQVTPNCILCQHTLETWDHLFFMCPYSFQVWTKLAKGILHASFTANWTETLKLIHDNRLSKTKCFIVGYIFQNAIHSL | failed |
| MDESAALRAFQDALRTQRPEFGQFFLARLLGLDISYPDGQCLIVFEPQDFLFNPQGSLHGGIIATVMDISMGHLLNHVQGAGLTLEMKTQYLKAVRQGTVYCRGEFLQRGRSVSFLKSTLTDAQGEPLAMATSTWKALSPARAPGVDAAAR | failed |
| MDFAYSPKVQELRERVSAFMEAHVYPAEAVFERQVAEGDRWQPTAIMEELKAKAKAEGLWNLFLPESEYGAGLANHEYAPLAEIMGRSLIGPEPFNCAAPDTGNMEVLVRYGSEEQKRTWLEPLLSGEIRSAFAMTEPGVASSDATNMEARAERQGDDWVINGRKWWTSGACDPRCKILIFMGLTNPDAPRHQQHSMILVPVDTPGVKILRPLPVFGYDDAPHGHAEVLFENVRVPYENVILGEGRGFEIAQGRLGPGRIHHCMRSIGMAERALELMCKRAVSRTAFGKPLARLGGNIDHIADSRMEINMARLLTLQAAYMMDTVGNKIAQSEIAQIKVVAPNVALKVIDRAIQMHGGAGVSNDFPLAYWYAMQRTLRLADGPDEVHRAAIGKFELGKYVPREML | failed |
| MDFGKPNQVTVNYLDENKTPIAPSLYLSGLFNEAYNVPMKKIKGYTLLKYDSEILGVFTESPQTINIIYQKKAPEQALEHHHHHH | failed |
| MDFGSFLKAPEIKVKIVTYRDIFQDKAMIENRFGEEYRDRSAVIKMDSADLKQLNVKKGETVILKNSFGTVVVKAEESGYEPSHRGIAYMPKSPWSNMLVSDETGGTGIPKFKDISVTVTSAKGQKLTELGL | not failed |
| MDFVEFWSQLIRNVRWRRACVLALIVLTLYLASSMMSIILLTFIFTFLVTRLVRAVRRWVKIPPTIIVLVVYALVILGIYFAVSIYLPQLIKQTFLTFESVYRFYQNPSHDTNQVLTWVTSYFQESDILKQLKGGISVVFQYITNIGNMGLTFFLSFILSFFFTIEDHQMRVFTKRFLTSTFGWFFQDVHFFAKKFVNSFGVVLEAQFLIAIVNTVITVTFMAILKMPQLISLGLMIFILSLIPVAGVIISVVPLSLIAYSVGGLRYVVYMLLMILVVHALEAYVLNPKFMSSRTELPIFYTFVVLLVSERLFGVWGLIVGVPIFNFILDIIGVKPVHRPRPNINLKKTITFHPDSENKR | failed |
| MDFVIRRATAEEYDTLGEITAQAYLRDGLLDFGESDSYLDELRDVAKRAAAAEVLVAVADDAVLGGATFVPSGGPMADIARPGEAEIRMLAVAREARGRGAGEALVRACADRARAVPGCTGVVLSTQAAMRTAHRLYERLGFVRTPDRDWNPLPELDDIMLLTYELTL | failed |
| MDGEAFEISLLDGEEDRFGGTVVNLMEVESMTIGDFDSKLDVSLKAWKDQGKKGIWIKLPSELSSLVDTAIKKGFTYHHAENEYVMLTFWLPEPPSTLPCNASHRIGIGAFVLNKNGEMLVVQENSGYFKDKNVWKVPTGTIKEGESIWAGAVREVKEETDIDAEFVEVLSFMESHQAVWQRKTDIFFVCELEARTFEIQKQDSEIHAAKWMPVEEYVNQPYHNKEGNEMFKLIANICLKRSREKYTGFVLTTNSAKKSLYCSVDHANLLKETADQASTSLSD | failed |
| MDGIFAGIICNQANRCLTWTSQQLFSEKISGAEGTKLDDEFLDMERKIDVTNKVVAEILSKTTEYLQPNPAYRAKLGMLNTVSKIRGQVKTTGYPQTEGLLGDCMLKYGKELGEDSTFGNALIEVGESMKLMAEVKDSLDINVKQTFIDPLQLLQDKDLKEIGHHLKKLEGRRLDYDYKKKRVGKIPDEEVRQAVEKFEESKELAERSMFNFLENDVEQVSQLAVFIEAALDYHRQSTEILQELQSKLQMRISAASSVPRREYKPRPVKRSSSELNGVSTTSVVKTTGSNIPMDQPCCRGLYDFEPENQGELGFKEGDIITLTNQIDENWYEGMIHGESGFFPINYVEVIVPLPQ | not failed |
| MDGKRVWLSDDELTRFIEQAETPHQRLAFLLAGRVGLRRSEIIEVCPQDLVDGPTGDHIRVWESYAKRDKYREPPVPQEVVTIAETLAYQQDDDEPLLDVAGSTVYRWVRRAADELEEETGDRGWQYLDVHDLRRTWGTYLLEQGVIPSVVMSFGGWEDWDTFRKHYLGLEHHHHHH | failed |
| MDGLFEFCQLSTGGSVAGAVKLNRQQTDMAVNWAGGLHHAKKYEASGFCYVNDIVLAILELLKYHQRVLYIDIDIHHGDGVEEAFYTTDRVMTVSFHKYGEYFPGTGDLRDIGAGKGKYYAVNFPMCDGIDDESYGQIFKPIISKVMEMYQPSAVVLQCGADSLSGDRLGCFNLTVKGHAKCVEVVKTFNLPLLMLGGGGYTIRNVARCWTYETAVALDCEIPNELPYNDYFEYFGPDFKLHISPSNMTNQNTPEYMEKIKQRLFENLRMLPHAPGVQMQAIPEDAVHEDSGDEDGEDPDKRISIRASDKRIACDLEHHHHHH | not failed |
| MDGSPARPVPLVPDAAPAAPGRGRLAALTLLTLGFFAANSLLARAALRPGLADPATFTAIRLASGAAALGGLALASRRARPRGGSAGSALALFAYAAAFSLAYRRIDAGPGAFLLFFAVQASMIGWSVLRGARPTRRQWAGLAVALAGLGWLTLPGAHAPDARGAALMLAAGVAWGAYTLRGRGVRDPAGATAANFALAVPLALCLVIASAGTLHLTARGAALAAASGAVASGVGYVLWYTVVPALGAARAAAVQLAVPAMVPLAAAGLLGEAITPRLLAAGTAILAGVALAIAPAARGGAFTRALSSRAGSAVERPPR | failed |
| MDHLKHLQQLQNIERIVLSGIVLANHKIEEVHSVLEPSDFYYPPNGLFFEIALKLHEEDCPIDENFIRQKMPKDKQIKEEDLVAIFAASPIDNIEAYVEEIKNASIKRKLFGLANTIREQALESAQKSSDILGAVEREVYALLNGSTIEGFRNIKEVLESAMDLITENQRKGSLEVTGIPTGFVQLDNYTSGFNKGSLVIIGARPSMGKTSLMMNMVLSALNDDRGVAVFSLEMSAEQLALRALSDLTSINMHDLESGRLDDDQWENLAKCFDHLSQKKLFFYDKSYVRIEQIRLQLRKLKSQHKELGIAFIDYLQLMSGSKATKERHEQIAEISRELKTLARELEIPIIALVQLNRSLENRDDKRPILSDIKDSGGIEQDADIVLFLYRGYIYQMRAEDNKIDKLKKEGKIEEAQELYLKVNEERRIHKQNGSIEEAEIIVAKNRNGATGTVYTRFNAPFTRYEDMPIDSHLEEGQETKVDYDIVTT | not failed |
| MDHLLSGLATRLGQGPFVADRTGSYHLRIDGQSVLLLRQGDDLLLESPLEHAPLDPQRDQQGLLRALLSRVASWSRRYPQAIVLDADGRLLLQARLGLDGLDPERLERALAAQVGLLEALAPELEPLPRGLPPQAPVWRP | failed |
| MDHQLSQHDIFISQDGQLQLTVAVDTETVWLTQAEICVLFDRERSVITKHINNVFKEGELERDSVCAIFARTADDGKTYQTQYFNLDVIISVGYRVKSKRGVQFRQWATNTLKQHLLQGYTLNQQRLVQRGIEFNQALALLSKTLTNQALINPDGQAVVNVIAEYARSWSLLQGYDEQSLTEITHKQQQMQPLALDEVLAAIAALKTNLIAKGEATDLFAQLRGNGLASSIATIEQGFGGEWFYPNVASRAAHLLYFIIKNHPFADGNKRTGSFLFLWYLQQNQHLLAKPVSEQINDTTLVALALLVAESLPDQKELMIRLIEHFILLKDSELEHHHHHH | not failed |
| MDIAELINHPELLLLVLAPLFFVCILLEWYLGDRRQKLPVSARYHAKEVLCNFSLAAMHQGTDILAGLLIAKLYLAIFGWKLFDIQMGPFTFVLLMVAQDFCYYWFHRASHRIRWMWAAHVVHHSSENMNFSTAFRQSLMYPFAGMWVFWLPLVILGFDPNWVVFVVLLSLGLQFFVHTQAVRKLGPLEWLFNTPSHHRVHHGRNPQYIDKNYAGILIIWDKLFGTFVPEEETVIYGITKPVNSFNPLKVTFSEWHDMFREVTTKGLSLSKRLGILFAPPASYQKDD | failed |
